Reference: patent US20250295802A1, “HER3 ANTIBODY-DRUG CONJUGATE AND USE THEREOF” (DUALITY BIOLOGICS (SUZHOU) CO., LTD., priority 2022, published 2025)
Values belong to the molecule of their own block, whether it stands above or below them.

What was measured:
[1] = biological target: T1, SP2/0-HER3 cells (Homo sapiens, UniProt P21860); experiment: FACS binding of murine 3F8 to SP2/0 cells overexpressing HER3; details: PE-anti-mouse secondary antibody
T1 construct: expressed in transfected cells; host or cells: SP2/0 (mouse myeloma) stably expressing human HER3
Procedure: (§1) Cell culture: SP2/0, SP2/0-HER3, SP2/0-HER2, SP2/O-EGFR, NCI-N87, MDA-MB-468, MDA-MB-453, 7901, HT29, MCF-7, and SK-BR-3 used in the study were purchased from ATCC and cultured using the appropriate media recommended by ATCC. SP2/0-EGFR, SP2/0-HER2, and SP2/0HER3 cells stably expressing human EGFR, HER2 and HER3 were generated in house.
(§2) FACS assay: the cultured cells were digested with 0.25% trypsin-EDTA and then centrifuged at 1500 rpm for 5 min. The cell pellets were regenerated into 5×10^6 cells/mL using a PBS FACS solution containing 5% FBS and 0.2% ProClin300. 50 μL of the cell suspension was incubated with 100 μL of the primary antibody at a concentration of 1 μg/mL on ice for 1 h. The cells were washed twice with the FACS solution. The pellets were regenerated using 100 μL of a FACS solution containing goat anti-mouse IgG-PE (1:1000 dilution) and incubated on ice in the dark for 1 h. The cells were then washed twice and resuspended in 200 μL of the FACS solution.
(§3) Murine 3F8 was co-incubated with SP2/0 wild-type cells or cells overexpressing HER3, HER2 or EGFR. The binding strength was measured in a FACS instrument with a PE-anti-mouse secondary antibody.

[2] = system: SP2/0 wild-type cells or cells overexpressing HER2 or EGFR; experiment: FACS binding of murine 3F8 to SP2/0 wild-type, HER2 or EGFR cells; set-up: species or system human
Procedure: as §1, §2, §3

[3] = biological target: T2, HER3 (Homo sapiens, UniProt P21860); experiment: ELISA binding to human HER3
T2 construct: human Fc (huFc)
Procedure: (§4) ELISA assay: human HER2-ex-huFc, human HER3-huFc, and human EGFR-his were diluted to 2 μg/mL and 50 μL/well in a 96-well plate and incubated at 4° C. overnight. The plate was washed with 0.5×PBST, then incubated with 100 μL of a blocking buffer (PBS+3% BSA) at 37° C. for 2 h, and washed with 0.5×PBST. The 3F8 antibody was diluted with the blocking buffer in a 1:3 serial gradient, added at 50 μL/well, incubated at 37° C. for 40-50 min, and then washed with 0.5×PBST. Goat anti-mouse IgG-HRP (Southern Biotech, 1030-05) was diluted at 1:20000 with the blocking buffer, added at 50 μL/well, incubated in the dark for 30 min, and then washed with 0.5×PBST. Prior to assay, 50 μL of luminol buffer A+B was added to each well in a 1:1 mix.
(§5) The binding affinities of murine 3F8 to human HER3, HER2 and EGFR were determined by ELISA.
(§6) EC50 of murine 3F8 binding to human HER3, HER2, and EGFR was analyzed using GraphPad Prism 6.0.
(§7) The species selectivity of murine 3F8 to human, monkey, rat and mouse HER3 was determined by ELISA.
(§8) EC50 of murine 3F8 binding to human, monkey, rat and mouse HER3 was analyzed using GraphPad Prism 6.0.

[4] = biological target: T3, human HER2 (Homo sapiens, UniProt P04626); experiment: ELISA binding to human HER2
T3 construct: human HER2-ex-huFc; human Fc (huFc)
Procedure: as §4, §5, §6

[5] = biological target: T4, human EGFR (Homo sapiens, UniProt P00533); experiment: ELISA binding to human EGFR
T4 construct: His
Procedure: as §4, §5, §6

[6] = biological target: cynomolgus monkey HER3; experiment: ELISA binding to cynomolgus monkey HER3; details: Table 2
Procedure: as §4, §7, §8

[7] = biological target: mouse HER3 (Mus musculus, UniProt Q61526); experiment: ELISA binding to mouse HER3
Procedure: as §4, §7, §8

[8] = biological target: rat HER3 (Rattus norvegicus, UniProt Q62799); experiment: ELISA binding to rat HER3
Procedure: as §4, §7, §8

[9] = system: NRG1-induced HER3 phosphorylation; experiment: NRG1-induced HER3 phosphorylation, western blot in NCI-N87, MDA-MB-468 and MDA-MB-453; type: cell-based
Procedure: Western blot assay: the protein separated by SDS-PAGE was transferred to a nitrocellulose membrane for Western blot. The primary antibodies used were as follows: anti-HER2 (cell signaling, Catl #: 2165S), anti-HER3 (cell signaling, Catl #: 12708), anti-p-HER3 (cell signaling, Catl #: 4791), and anti-β-actin (cell signal transduction, Catl #: 4967).
HER3 phosphorylation induced by NRG1: the cells were cultured in a 6-well plate and used for an experiment when the confluency reached 80%. On the day of the experiment, the cells were washed twice with PBS, incubated for 6 h in a serum-free medium, and then induced overnight with 10 μg/mL of the antibody. To induce HER3 phosphorylation, NRG1 was added to a working concentration of 100 ng/mL 30 min before the cells were collected for Western blot.
Murine 3F8 blocked NRG1-induced HER3 phosphorylation. NCI-N87, MDA-MB-468 and MDA-MB-453 were treated with NRG1, the HER3 ligand, to induce downstream phosphorylation of HER3.
The effect of murine 3F8 in inhibiting NRG1-induced p-HER3 was determined by western blot.

[10] = system: cells at different HER3 surface levels; experiment: Internalization of murine 3F8 by cells at different HER3 surface levels; type: cell-based
Procedure: Murine 3F8 was rapidly taken up by cells at different HER3 surface levels. The cells at different HER3 surface levels were incubated with murine 3F8 on ice (control) or incubated at 37° C. for 1 or 4 h. The internalization fraction was determined by subtracting the 37° C. incubated cell surface signal from the ice incubated control.

[11] = system: BT474 subcutaneous xenograft model; experiment: Tumor growth in BT474 subcutaneous xenograft model; type: in vivo, mouse; details: 25 mg/kg intravenously once every two weeks for three weeks; one-way analysis of variance p<0.05
Procedure: In vivo efficacy study: the animals were maintained and used according to the IACUC guidelines. BALC/b nude mice and NPG mice, purchased from Charles River and SPF Biotech, respectively, were housed at 25° C. in a 12-h dark/light cycle with free access to food and drink. A patient-derived xenograft (PDX) model was generated by subcutaneous implantation of cryopreserved tissue fragments. Animals were initiated with drug treat when the tumor size reached 100-200 mm^3 and were euthanized when the tumor size was 1000 mm^3. The health condition was monitored daily. Tumor size and body weight were monitored and recorded every 3 days.
The anti-HER3 antibody was effective in inhibiting tumor growth in the BT474 subcutaneous xenograft model. The anti-HER3 antibody 3F8, 3D4, or 3F8+3D4 combination was injected intravenously at 25 mg/kg once every two weeks for three weeks. Tumor size was monitored every 3-4 days. Both 3F8 and 3D4 are anti-HER3 antibodies. 3F8 is a murine antibody.

[12] = biological target: T5, His-HER3 (Homo sapiens, UniProt P21860); experiment: Binding kinetics by Biacore (SPR); details: antibody as ligand, analyte His-HER3, Biacore T200
T5 construct: His
Procedure: Affinity assay by surface plasmon resonance (SPR): antibody kinetics and affinity were determined using Biacore T200. Briefly, the recombinant human HER3 antibody was immobilized on a protein A chip (GE, Cat. 29-1275-5). The antigen concentration, from 50 nM to a final concentration of 0.78125 nM, was generated by 2-fold serial dilution, and affinity and kinetics were determined through the chip.
The binding affinity of humanized 3F8 (hu3F8) and chimeric 3F8. Binding kinetics of 3 humanized 3F8 clones and chimeric 3F8 were determined by Biacore. Three humanized 3F8 clones (clone 1, clone 2 and clone 3) had different heavy chains and one identical light chain. Clone 1, clone 2, and clone 3 corresponded to hu3F8-1, hu3F8-2, and hu3F8-3, respectively.
All data listed in Table 6 were processed using Biacore T200 evaluation software version 3.1.

[13] = biological target: T2, HER3; experiment: ELISA binding affinity after incubation at 40° C. (heat stress); details: day 0
Procedure: as §4, with “Prior to assay, 50 μL of luminol buffer A+B was added to each well in a 1:1 mix.” left out
Antibody stability test: the purified antibody at 5 mg/mL was stored at 4° C. as regular practice, incubated at 40° C. for 7 days and 14 days for heat stability evaluation, transferred to a glycine solution at pH 3.5 for regeneration, and stored for 2, 4 and 6 h for acid stability evaluation, or subjected to repeated freeze-thaw treatments for 4 or 6 cycles for freeze-thaw stability evaluation. Aggregation was measured by SEC-HPLC, and binding affinity was determined by ELISA. […]
EC50 assay of the three clones of hu3F8 incubated at 40° C. for different times. The three humanized 3F8 antibody clones were incubated in normal saline at 40° C. for 7 or 14 days, and the binding affinities after heat stress test were determined by ELISA. […]

[14] = biological target: T2, HER3; experiment: ELISA binding affinity after repeated freeze-thaw; details: 0 freeze-thaw cycles
Procedure: as §4
Antibody stability test: the purified antibody at 5 mg/mL was stored at 4° C. as regular practice, incubated at 40° C. for 7 days and 14 days for heat stability evaluation, transferred to a glycine solution at pH 3.5 for regeneration, and stored for 2, 4 and 6 h for acid stability evaluation, or subjected to repeated freeze-thaw treatments for 4 or 6 cycles for freeze-thaw stability evaluation. Aggregation was measured by SEC-HPLC, and binding affinity was determined by ELISA.
Three clones of hu3F8 were freeze-thawed for 3 or 5 cycles, and then subjected to ELISA to measure the binding affinities. The chimeric antibody was subjected to parallel assay.

Chain of mouse HER3 (Q61526 20-1339): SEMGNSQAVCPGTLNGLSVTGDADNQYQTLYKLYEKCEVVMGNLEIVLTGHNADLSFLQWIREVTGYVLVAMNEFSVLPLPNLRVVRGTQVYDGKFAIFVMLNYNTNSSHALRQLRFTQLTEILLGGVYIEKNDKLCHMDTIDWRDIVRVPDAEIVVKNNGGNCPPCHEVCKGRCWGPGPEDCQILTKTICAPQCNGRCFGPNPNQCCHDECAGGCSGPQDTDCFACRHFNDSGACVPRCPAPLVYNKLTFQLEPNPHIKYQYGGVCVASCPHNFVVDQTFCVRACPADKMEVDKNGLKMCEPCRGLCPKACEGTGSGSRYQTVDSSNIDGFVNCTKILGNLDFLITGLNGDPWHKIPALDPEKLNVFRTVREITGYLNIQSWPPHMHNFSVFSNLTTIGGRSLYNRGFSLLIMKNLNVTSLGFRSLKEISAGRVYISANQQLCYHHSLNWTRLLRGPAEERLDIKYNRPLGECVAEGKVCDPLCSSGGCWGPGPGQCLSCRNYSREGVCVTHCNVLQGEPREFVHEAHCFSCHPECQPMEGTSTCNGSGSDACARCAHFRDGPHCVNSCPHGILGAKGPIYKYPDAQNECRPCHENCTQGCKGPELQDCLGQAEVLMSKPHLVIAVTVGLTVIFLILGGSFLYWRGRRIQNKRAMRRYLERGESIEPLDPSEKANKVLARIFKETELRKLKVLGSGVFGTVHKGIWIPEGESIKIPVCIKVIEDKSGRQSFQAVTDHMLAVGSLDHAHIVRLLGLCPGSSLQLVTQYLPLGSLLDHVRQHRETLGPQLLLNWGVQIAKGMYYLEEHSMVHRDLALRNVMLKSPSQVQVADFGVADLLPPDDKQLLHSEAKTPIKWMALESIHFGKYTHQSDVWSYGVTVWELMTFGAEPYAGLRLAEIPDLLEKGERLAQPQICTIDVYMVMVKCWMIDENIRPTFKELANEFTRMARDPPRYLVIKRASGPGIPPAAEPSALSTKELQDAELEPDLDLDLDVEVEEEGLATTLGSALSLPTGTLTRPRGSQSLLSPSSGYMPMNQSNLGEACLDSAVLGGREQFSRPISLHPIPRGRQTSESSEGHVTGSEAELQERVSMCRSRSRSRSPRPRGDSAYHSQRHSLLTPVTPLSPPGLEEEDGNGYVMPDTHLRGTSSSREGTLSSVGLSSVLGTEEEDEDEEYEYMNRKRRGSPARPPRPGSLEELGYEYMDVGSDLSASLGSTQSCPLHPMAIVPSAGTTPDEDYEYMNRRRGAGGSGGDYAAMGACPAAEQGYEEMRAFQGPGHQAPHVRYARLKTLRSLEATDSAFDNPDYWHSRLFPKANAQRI
Chain of rat HER3 (Q62799 20-1339): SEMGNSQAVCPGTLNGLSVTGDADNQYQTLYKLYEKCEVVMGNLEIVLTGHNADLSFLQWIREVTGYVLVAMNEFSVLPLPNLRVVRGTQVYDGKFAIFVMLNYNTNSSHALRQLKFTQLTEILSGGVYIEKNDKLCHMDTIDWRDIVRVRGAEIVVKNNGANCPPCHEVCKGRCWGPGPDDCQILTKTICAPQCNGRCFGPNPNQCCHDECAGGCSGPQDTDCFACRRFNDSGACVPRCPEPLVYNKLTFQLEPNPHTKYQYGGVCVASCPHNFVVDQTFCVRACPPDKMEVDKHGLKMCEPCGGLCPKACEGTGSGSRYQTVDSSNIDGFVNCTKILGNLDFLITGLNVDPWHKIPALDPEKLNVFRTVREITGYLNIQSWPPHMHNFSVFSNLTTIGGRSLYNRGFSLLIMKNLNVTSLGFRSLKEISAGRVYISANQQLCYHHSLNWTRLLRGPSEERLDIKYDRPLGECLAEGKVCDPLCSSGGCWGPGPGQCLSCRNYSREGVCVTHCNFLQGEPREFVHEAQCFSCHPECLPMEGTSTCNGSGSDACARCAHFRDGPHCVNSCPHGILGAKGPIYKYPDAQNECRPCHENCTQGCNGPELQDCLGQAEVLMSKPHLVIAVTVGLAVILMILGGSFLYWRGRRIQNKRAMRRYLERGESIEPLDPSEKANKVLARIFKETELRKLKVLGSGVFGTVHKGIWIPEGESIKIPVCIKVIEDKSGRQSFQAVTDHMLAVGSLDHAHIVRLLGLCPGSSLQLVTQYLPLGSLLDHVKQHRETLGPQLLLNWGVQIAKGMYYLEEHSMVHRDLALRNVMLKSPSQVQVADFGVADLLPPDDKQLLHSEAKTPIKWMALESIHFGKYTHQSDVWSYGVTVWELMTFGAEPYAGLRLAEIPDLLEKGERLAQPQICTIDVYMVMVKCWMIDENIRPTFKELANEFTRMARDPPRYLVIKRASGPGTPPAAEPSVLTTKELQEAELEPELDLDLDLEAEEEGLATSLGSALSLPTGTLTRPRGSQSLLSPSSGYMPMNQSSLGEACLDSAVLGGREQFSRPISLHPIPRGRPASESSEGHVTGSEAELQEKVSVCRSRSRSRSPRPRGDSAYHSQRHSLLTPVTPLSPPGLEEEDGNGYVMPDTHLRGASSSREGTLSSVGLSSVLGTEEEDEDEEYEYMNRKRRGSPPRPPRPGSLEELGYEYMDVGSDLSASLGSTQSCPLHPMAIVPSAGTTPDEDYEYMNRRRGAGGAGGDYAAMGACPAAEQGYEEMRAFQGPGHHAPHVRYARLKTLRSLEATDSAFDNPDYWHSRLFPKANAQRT

- binding to SP2/0-HER3 cells [1]: specifically bound
- recognition of human HER3 ([3]; ELISA): only recognized HER3
- EC50 (ng/mL) huHER3 ([3]; Table 1): 16.50 ng/mL
- HillSlope huHER3 ([3]; Table 1): 1.04
- EC50 (ng/mL) Human HER3 ([3]; Table 2): 24.525 ng/mL
- HillSlope Human HER3 ([3]; Table 2): 1.015
- recognition of human HER2 [4]: did not recognize
- recognition of human EGFR [5]: did not recognize
- EC50 (ng/mL) Cynomolgus monkey HER3 [6]: 27.825 ng/mL
- recognition of mouse HER3 [7]: did not recognize
- recognition of rat HER3 [8]: did not recognize
B1: murine 3F8: murine anti-HER3 antibody 3F8 from hybridoma; VL SEQ ID NO: 15, VH SEQ ID NO: 16 (antibody, V domains shown)
VH: DVQLQESGPGLVKPSQSLSLTCSVTGYSITSAYYWNWIRQFPGDKLEWMGYISYDGRNNFNPSLKNRISITRDTSKNQFFLKLNSVTSGDTATYYCARDGDYDYFDYWGQGTTLTVSS
VL: DIQMTQTTSSLSASLGDRVTISCRASQDISNYLNWYQQKPDGTFKLLIYYTSILHSGVPSRFSGSGSGTDYSLTISNLEQEDIATYFCQQGDTLPPTFGAGTKLELK
- binding to other cells [2]: did not bind
- HER2 protein level [9]: no effect
- total HER3 protein level [9]: no effect
- phosphorylation level of HER3 protein ([9]; NRG1 100 ng/mL, antibody 10 μg/mL): reduced the phosphorylation level
- time within which most was taken up ([10]; 37° C.): ≤ 1 h
- internalization into the cell ([10]; 37° C. for 1 or 4 h vs ice control): rapidly internalized
- tumor growth [11]: significantly inhibited the tumor growth

- ka [12]: 628000 M⁻¹ s⁻¹
- kd [12]: 0.000391 s⁻¹
- EC50 after incubation at 40° C. [13]: 47.37 ng/mL
- EC50 after freeze-thaw stress [14]: 47.06 ng/mL
B2: Chimeric: murine-human chimeric 3F8 antibody with human IgG1 and Igκ constant regions (antibody, V domains shown)
VH: B1 VH
VL: B1 VL
